# Experimental data as given in the RNAGym collection of RNA variant scans (doi:10.1073/pnas.2313332121).
# B1: TPR t1 (parent)
# chain: GACCAAUCUGCCCUCAGAGCUCGAGAACAUCUUCGGAUGCAGAGGAGGCAGGCUUCGGUGGCGCGAUAGCGCCAACGUCCUCAACCUCCAAUGCAUCCCACCACAUGAUGAUGCCUGAAGAGCCUUGGUUUUUUG
# Variants of: B1
# Assay: polymerase ribozyme fitness, log enrichment relative to wild type (log ratio); higher = more active; in vitro selection for triplet polymerase activity
# Method in brief: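 After PCR construction and transcription, each subunit's mutant library from a heterodimeric triplet polymerase ribozyme was annealed with a biotinylated primer, the partner subunit and triplets. Incubation was frozen, at −7 °C, and extended constructs were gel-excised, bound to streptavidin beads and amplified by RT-PCR, in one selection round done in triplicate. Fitness is the logarithm of a genotype's enrichment divided by that of the wild type, from inverse-variance-weighted replicate averages of Illumina-sequenced inputs and outputs. The base of the logarithm is 2, and genotypes needed ≥10 input reads and ≥1 read per output.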
row,Variant,polymerase ribozyme fitness (log ratio)
1,GACCAAUCAGCCCGCAGAGCUCGAGAACAUCUUCGGAUGCCUAGGAGGCAGGCUUCGGUUGCGCGAUAGCGCCAACGUCCUCAACCUCCAAUGCAUCCCACCACAUGAUGAUGCCUGAAGAGCCUUGGUUUUUUG,-0.928
2,GACCAAUCCGUCCUCAGAGCUCGAGAACAUCUUCGGAUGCAGAGGAGGCAGGCUUCGGUGACGCGAUAGCGCCAACGUCCUCAACCUGCAAUGCAUCCCACCACAUGAUGAUGCCUGAAGAGCCUUGGUUUUUUG,-0.498
3,GACCAAUCAGCCCACAGAGCUCGAGAACAUCUUCGGAUGCAGAGGAGGCAGGCUUCGGUGGCGUGAUAGCGCCAACGUCCUCAACCUCCAAUGCAUCCCACCACAUGAUGAUGCCUGAAGAGCCUUGGUUUUUUG,0.0854
4,GACCAAUCAGCCCUCAGAGCGCGAGAACAUCUUCGGAUGCUGAGAAGGCAGGCUUCGGUGGCGCGAUAGCGCCAACGUCCUCAACCUCCAAUGCAUCCCACCACAUGAUGAUGCCUGAAGAGCCUUGGUUUUUUG,-4.48
5,GACCAAUCAGCCCUCAGAGCUCGAGAACAUCUUCGGAUGCAGAGGAGCCAGGCUUCGGUGGCGCGAUAGCGCCAACAUCCUCAACCUUCAAUGCAUCCCACCACAUGAUGAAGCCUGAAGAGCCUUGGUUUUUUG,0.603
6,GACCAAUCAGCCCUCAGAGCUCGAGAACAUCUUCGGAUCCAGAGGAGGCAGGCUUCGGUGGCGCGAUAGCGCCAACGUCCUCAACCUCCAAUGCAUCCUACCACAUGAUGAUGCCUGAAGAGCCUUGGUUUUUUG,-2.83
7,GACCAAUCCGCCCUCAGAGCUCGAGAACAUCUUCGGAUGCAGUGGAGGCAGGCUUCGGUGGCGCGAUAGCGCCAACGUCCUCAACCUCCAAUGCAUCCCACCACAUGAUGAUGCCUGAAGAGCCUUGGUUUUUUG,-0.741
8,GACCAAUCAGCCCUCAGAGCUCGAGAACAUCUUCGGAUGCAGAGGAGGCAGGCUUCGGUGUCGCGAUAGCGCCAACGUCCUCAAUCUCCAAUGCAUCCCACCACAUGAUGAUGCCUUAAGAGCCUUGGUUUUUUG,0.0255
9,GACCAAUCAGCCCUCAGAGCUCGAGAACAUCUUCGGAUGCAGAGGAGGCAGGCUUCGGUGGCUCGAUAGCGCCAACGUCCUCAACCUCCAAUGCAUCCCACCACAUGAUGAUGCCUGAAGAGCCUUGGUUUUUUG,-0.179
10,GACCAAUCCGCCCUCAGAGCUCGAGAACAUCUUCGGAUGCAGAGGAGGCAGGCUUCGGUGGCGCGAUAGCGCCAACGUCCUCAACCUCCGAUGCAUCCCACCACAUGAUGAUGCUUGAAGAGCCUUGGUUCUUUG,1.24
11,GACCAAUCCGCCCUCAGAGCUUGAGAACAUCUUCGGAUGCAGAGGCGGCAGGCUUCGGUGGCGCGAUAGCGCCAACGUCCUCAACCUCCAAUGCAUCCCACCGCAUGAUGAUCCCUGAAGAGCCUUGGUUUUUUG,-7.29
12,GACCAAUCCGCGCUCAGAGCUCGAGAACAUCUUCGGAUGCAGAGGAGGCAGGCUUCGGUCGCGCGAUAGCGCCAACGCCCUCAACCUCCAAUGCAUCCCACCACAUGAUGAUGCCUGAAGAGCCUUGGUUUUUUG,-1.6
13,GACCAAUCAGCCCUCAGAGCUCGAGAACAUCUUCGGAUACAGAGGAGGCAGGCUUAGGUAGCGCGAUAGCGCCAACGUCCUCAACCUCCAAUGCAUCCCACCACAUGAUGAUGCCUGAAGAGCCUUGGUUUUUUG,0.000466
14,GACCAAUCCGCCCUCAGAGCUCGAGAACUUCUUCGGAUGCAGAGGAGGCAGGCUUCGGUGACGCGAUAGCGCCAACGUCCUCAACCUUCAAUGCAUCCCACUACAUGAUGAUGCCUGAAGAGCCUUGGUUUUUUG,-4.47
15,GACCAAUCAGCCCUCAGAGCUCGAGAACAUCUUCGGAUGCAGAGGAGGCAGGCUUCGGUGGCGCGAUAGCUCCAACGUCCUCAACCACAAAUGCAUCCCACCACAUGAUGAGGCCUGAAGAGCCUUGGUUUUUUG,-5.05
16,GACCAAUCAGCCCUCAGAGCUCGAGAACAUCUUCGAAUGCAGAGGAGGCAGGCUUCGGUGGCGCGAUAGCGCCAACGUCCUCAACCUCCAAUGCAUCCCACCACAUGAUGAUGCCUGAAGAGCCUUGGUUUUUUG,0.00915
17,GACCAAUCCGCCCUAAGAGCUCGAGAACAUCUUCGGAUGCAGAGCAGGCAGGCUUCCGAGGCGCGAUAGCGCCAACGUCCUCAACCUCCAAUGCAUCCCACCACAUGAUGAUGCCUGAAAAGCCUUGGUUUUUUG,0.743
18,GACCAAUCCGCCCUCGGAGCUCGAGAACAUCUUCGGAUGCAGAGGAGGCAGGCUUCCGUGGCGCGAUAGCGCCAACGUCCUCAACCUCCAAUGCAUCCCACCACAUGAUCAUGCCUGAAGAGCCUUGGUUUUUUG,-4.22
19,GACCAAUCAGCCCUCAGAGCUCGAGAACAUCAUCGGUUGCAGAGGCGGCAGGCUUAGGUGGCGCGAUAGCGCCAACGUACUCAACCUCCAAUGCAUCCCACCACAUGAUGGUGCCUGAAGAGCCUUGGUUUUUUG,-7.29
20,GACCAAUCAGCCCUCAGAGCUCGAGAACAUCUUCGGAUGCAGAGGAGGCAGGCUAAGGUGGCUCGAUAGCGCCAACGUCCUCAACCUCCAAUGCAUCCCACCACAUGAUGAUGCCUGAAGAGCCUUGGUUUUUUG,-5.03
21,GACCAAUCCGCCUUCAGAGCUCGAGAACAUCUUCGGAUGCAGAGGAGGCAGGAUUCGGUGGCGCGAUAGCGCCAACGUCCUCAACCCCCAAUGCAUCCCUCCACAUGAUGAUGCCUGAAGAGCCUUGGUUUUUUG,-0.242
